Assay results reported in the supplement of paper PMC5998384.

Tests used:
HeLa Kyoto [1] = test: solubility change mitosis vs G1/S (difference of NP-40 vs SDS log2 ratios) (log2 ratio difference); higher = more soluble in mitosis
HeLa Kyoto [2] = test: thermal stability score vs G1/S (z-score of summed log2 fold changes over temperatures); higher = more thermally stable than in G1/S
HeLa Kyoto [3] = test: solubility in G1/S (NP-40 vs SDS abundance) (log2 ratio); higher = more soluble; details: cell cycle stage: G1/S
HeLa Kyoto [4] = test: melting temperature (median over replicates), in situ; higher = more thermally stable
[5] = cell cycle stage: early G1 (4.5 h after nocodazole release)
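Throughout, for melting temperature (median over replicates), in situ: HeLa Kyoto cells synchronized by double thymidine or nocodazole block, proteins quantified by TMT10plex mass spectrometry, three independent biological replicates.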
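Throughout, for solubility change mitosis vs G1/S (difference of NP-40 vs SDS log2 ratios): synchronized HeLa Kyoto cells (double thymidine block for G1/S, nocodazole release for mitosis), protein amounts in NP-40 versus SDS lysates quantified by mass spectrometry, three biological replicates.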
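Throughout, for solubility in G1/S (NP-40 vs SDS abundance): HeLa Kyoto cells arrested at G1/S by double thymidine block, proteins quantified by TMT10plex mass spectrometry in mild NP-40 versus SDS extracts, three biological replicates.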
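Throughout, for thermal stability score vs G1/S (z-score of summed log2 fold changes over temperatures): synchronized HeLa Kyoto cells, proteins quantified by TMT10plex mass spectrometry, three biological replicates, mitosis taken 0.5 h after nocodazole release, G1/S directly after double thymidine block.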

CTSD, sequence (chain, as listed by the source): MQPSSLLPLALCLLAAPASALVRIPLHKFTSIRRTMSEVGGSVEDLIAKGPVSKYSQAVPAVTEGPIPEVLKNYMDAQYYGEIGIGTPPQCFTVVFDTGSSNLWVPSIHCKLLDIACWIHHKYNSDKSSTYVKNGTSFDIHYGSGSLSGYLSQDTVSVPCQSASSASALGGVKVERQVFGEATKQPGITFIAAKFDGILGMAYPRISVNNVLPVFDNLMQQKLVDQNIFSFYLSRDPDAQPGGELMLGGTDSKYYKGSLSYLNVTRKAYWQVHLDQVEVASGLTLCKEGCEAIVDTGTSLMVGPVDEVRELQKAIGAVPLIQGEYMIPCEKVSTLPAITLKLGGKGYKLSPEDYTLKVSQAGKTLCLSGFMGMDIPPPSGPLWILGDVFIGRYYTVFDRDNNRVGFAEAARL

| Substance | solubility change mitosis (log2) (HeLa Kyoto [1]) | thermal stability score (HeLa Kyoto [2]; [5]) | thermal stability score (HeLa Kyoto [2]; cell cycle stage: mitosis) | solubility in G1/S (log2) (HeLa Kyoto [3]) | melting temperature (HeLa Kyoto [4]; cell cycle stage: G1/S) | melting temperature (HeLa Kyoto [4]; cell cycle stage: mitosis) |
| --- | --- | --- | --- | --- | --- | --- |
| MNKLYIGNLSENAAPSDLESIFKDAKIPVSGPFLVKTGYAFVDCPDESWALKAIEALSGKIELHGKPIEVEHSVPKRQRIRKLQIRNIPPHLQWEVLDSLLVQYGVVESCEQVNTDSETAVVNVTYSSKDQARQALDKLNGFQLENFTLKVAYIPDEMAAQQNPLQQPRGRRGLGQRGSSRQGSPGSVSKQKPCDLPLRLLVPTQFVGAIIGKEGATIRNITKQTQSKIDVHRKENAGAAEKSITILSTPEGTSAACKSILEIMHKEAQDIKFTEEIPLKILAHNNFVGRLIGKEGRNLKKIEQDTDTKITISPLQELTLYNPERTITVKGNVETCAKAEEEIMKKIRESYENDIASMNLQAHLIPGLNLNALGLFPPTSGMPPPTSGPPSAMTPPYPQFEQSETETVHLFIPALSVGAIIGKQGQHIKQLSRFAGASIKIAPAEAPDAKVRMVIITGPPEAQFKAQGRIYGKIKEENFVSPKEEVKLEAHIRVPSFAAGRVIGKGGKTVNELQNLSSAEVVVPRDQTPDENDQVVVKITGHFYACQVAQRKIQEILTQVKQHQQQKALQSGPPQSRRK [IGF2BP3] | 0.0855 | 0.549 | 0.841 | 0.241 | 46.9 °C | 47.6 °C |
| MRPGGERPVEGGACNGRSELELLKLRSAECIDEAAERLGALSRAIWSQPELAYEEHHAHRVLTHFFEREPPAASWAVQPHYQLPTAFRAEWEPPEARAPSATPRPLHLGFLCEYDALPGIGHACGHNLIAEVGAAAALGVRGALEGLPRPPPPVKVVVLGTPAEEDGGGKIDLIEAGAFTNLDVVFMAHPSQENAAYLPDMAEHDVTVKYYGKASHSASYPWEGLNALDAAVLAYNNLSVFRQQMKPTWRVHGIIKNGGVKPNIIPSYSELIYYFRAPSMKELQVLTKKAEDCFRAAALASGCTVEIKGGAHDYYNVLPNKSLWKAYMENGRKLGIEFISEDTMLNGPSGSTDFGNVSFVVPGIHPYFHIGSNALNHTEQYTEAAGSQEAQFYTLRTAKALAMTALDVIFKPELLEGIREDFKLKLQEEQFVNAVE [PM20D2] | 0.0574 | -0.942 | -1.84 | 0.167 | 52.7 °C | 52.2 °C |
| MSDVEENNFEGRESRSQSKSPTGTPARVKSESRSGSRSPSRVSKHSESHSRSRSKSRSRSRRHSHRRYTRSRSHSHSHRRRSRSRSYTPEYRRRRSRSHSPMSNRRRHTGSRANPDPNTCLGVFGLSLYTTERDLREVFSRYGPLSGVNVVYDQRTGRSRGFAFVYFERIDDSKEAMERANGMELDGRRIRVDYSITKRAHTPTPGIYMGRPTHSGGGGGGGGGGGGGGGGRRRDSYYDRGYDRGYDRYEDYDYRYRRRSPSPYYSRYRSRSRSRSYSPRRY [TRA2A] | 0.522 | 1.2 | 1.92 | -1.11 | 49.1 °C | 49.5 °C |
| MGCCSSASSAAQSSKREWKPLEDRSCTDIPWLLLFILFCIGMGFICGFSIATGAAARLVSGYDSYGNICGQKNTKLEAIPNSGMDHTQRKYVFFLDPCNLDLINRKIKSVALCVAACPRQELKTLSDVQKFAEINGSALCSYNLKPSEYTTSPKSSVLCPKLPVPASAPIPFFHRCAPVNISCYAKFAEALITFVSDNSVLHRLISGVMTSKEIILGLCLLSLVLSMILMVIIRYISRVLVWILTILVILGSLGGTGVLWWLYAKQRRSPKETVTPEQLQIAEDNLRALLIYAISATVFTVILFLIMLVMRKRVALTIALFHVAGKVFIHLPLLVFQPFWTFFALVLFWVYWIMTLLFLGTTGSPVQNEQGFVEFKISGPLQYMWWYHVVGLIWISEFILACQQMTVAGAVVTYYFTRDKRNLPFTPILASVNRLIRYHLGTVAKGSFIITLVKIPRMILMYIHSQLKGKENACARCVLKSCICCLWCLEKCLNYLNQNAYTATAINSTNFCTSAKDAFVILVENALRVATINTVGDFMLFLGKVLIVCSTGLAGIMLLNYQQDYTVWVLPLIIVCLFAFLVAHCFLSIYEMVVDVLFLCFAIDTKYNDGSPGREFYMDKVLMEFVENSRKAMKEAGKGGVADSRELKPMASGASSA [SLC44A1] | -0.147 | -1.35 | -2.05 | -0.0157 | 55.7 °C |  |
| MDSNTAPLGPSCPQPPPAPQPQARSRLNATASLEQERSERPRAPGPQAGPGPGVRDAAAPAEPQAQHTRSRERADGTGPTKGDMEIPFEEVLERAKAGDPKAQTEVGKHYLQLAGDTDEELNSCTAVDWLVLAAKQGRREAVKLLRRCLADRRGITSENEREVRQLSSETDLERAVRKAALVMYWKLNPKKKKQVAVAELLENVGQVNEHDGGAQPGPVPKSLQKQRRMLERLVSSESKNYIALDDFVEITKKYAKGVIPSSLFLQDDEDDDELAGKSPEDLPLRLKVVKYPLHAIMEIKEYLIDMASRAGMHWLSTIIPTHHINALIFFFIVSNLTIDFFAFFIPLVIFYLSFISMVICTLKVFQDSKAWENFRTLTDLLLRFEPNLDVEQAEVNFGWNHLEPYAHFLLSVFFVIFSFPIASKDCIPCSELAVITGFFTVTSYLSLSTHAEPYTRRALATEVTAGLLSLLPSMPLNWPYLKVLGQTFITVPVGHLVVLNVSVPCLLYVYLLYLFFRMAQLRNFKGTYCYLVPYLVCFMWCELSVVILLESTGLGLLRASIGYFLFLFALPILVAGLALVGVLQFARWFTSLELTKIAVTVAVCSVPLLLRWWTKASFSVVGMVKSLTRSSMVKLILVWLTAIVLFCWFYVYRSEGMKVYNSTLTWQQYGALCGPRAWKETNMARTQILCSHLEGHRVTWTGRFKYVRVTDIDNSAESAINMLPFFIGDWMRCLYGEAYPACSPGNTSTAEEELCRLKLLAKHPCHIKKFDRYKFEITVGMPFSSGADGSRSREEDDVTKDIVLRASSEFKSVLLSLRQGSLIEFSTILEGRLGSKWPVFELKAISCLNCMAQLSPTRRHVKIEHDWRSTVHGAVKFAFDFFFFPFLSAA [WFS1] | -0.183 | 2.34 | 3.05 | 0.109 | 51.7 °C | 52.2 °C |
| MLWPRLAAAEWAALAWELLGASVLLIAVRWLVRRLGPRPGGLGRSGTPVPPPSAAAAPASGEMTMDALLARLKLLNPDDLREEIVKAGLKCGPITSTTRFIFEKKLAQALLEQGGRLSSFYHHEAGVTALSQDPQRILKPAEGNPTDQAGFSEDRDFGYSVGLNPPEEEAVTSKTCSVPPSDTDTYRAGATASKEPPLYYGVCPVYEDVPARNERIYVYENKKEALQAVKMIKGSRFKAFSTREDAEKFARGICDYFPSPSKTSLPLSPVKTAPLFSNDRLKDGLCLSESETVNKERANSYKNPRTQDLTAKLRKAVEKGEEDTFSDLIWSNPRYLIGSGDNPTIVQEGCRYNVMHVAAKENQASICQLTLDVLENPDFMRLMYPDDDEAMLQKRIRYVVDLYLNTPDKMGYDTPLHFACKFGNADVVNVLSSHHLIVKNSRNKYDKTPEDVICERSKNKSVELKERIREYLKGHYYVPLLRAEETSSPVIGELWSPDQTAEASHVSRYGGSPRDPVLTLRAFAGPLSPAKAEDFRKLWKTPPREKAGFLHHVKKSDPERGFERVGRELAHELGYPWVEYWEFLGCFVDLSSQEGLQRLEEYLTQQEIGKKAQQETGEREASCRDKATTSGSNSISVRAFLDEDDMSLEEIKNRQNAARNNSPPTVGAFGHTRCSAFPLEQEADLIEAAEPGGPHSSRNGLCHPLNHSRTLAGKRPKAPRGEEAHLPPVSDLTVEFDKLNLQNIGRSVSKTPDESTKTKDQILTSRINAVERDLLEPSPADQLGNGHRRTESEMSARIAKMSLSPSSPRHEDQLEVTREPARRLFLFGEEPSKLDQDVLAALECADVDPHQFPAVHRWKSAVLCYSPSDRQSWPSPAVKGRFKSQLPDLSGPHSYSPGRNSVAGSNPAKPGLGSPGRYSPVHGSQLRRMARLAELAAL [ANKLE2] | 0.146 | 2.02 | 3.19 | 0.122 | 47.5 °C | 48.1 °C |
| CTSD | -0.113 | 1.02 | -1.76 | 0.272 | 56.2 °C | 57 °C |
| ZMYM4 | 0.281 | 1.6 | 3.25 | -0.601 | 46 °C | 49.4 °C |
| MAAMASLGALALLLLSSLSRCSAEACLEPQITPSYYTTSDAVISTETVFIVEISLTCKNRVQNMALYADVGGKQFPVTRGQDVGRYQVSWSLDHKSAHAGTYEVRFFDEESYSLLRKAQRNNEDISIIPPLFTVSVDHRGTWNGPWVSTEVLAAAIGLVIYYLAFSAKSHIQA [SSR4] | 0.0331 | 1.62 | -0.139 | 0.0435 | 55.5 °C | 54.9 °C |
| MAAVVALSLRRRLPATTLGGACLQASRGAQTAAATAPRIKKFAIYRWDPDKAGDKPHMQTYEVDLNKCGPMVLDALIKIKNEVDSTLTFRRSCREGICGSCAMNINGGNTLACTRRIDTNLNKVSKIYPLPHMYVIKDLVPDLSNFYAQYKSIEPYLKKKDESQEGKQQYLQSIEEREKLDGLYECILCACCSTSCPSYWWNGDKYLGPAVLMQAYRWMIDSRDDFTEERLAKLQDPFSLYRCHTIMNCTRTCPKGLNPGKAIAEIKKMMATYKEKKASV [SDHB] | -0.00338 | -1.86 | -2.8 | 0.659 | 54.7 °C | 56.3 °C |
| MAAMAVALRGLGGRFRWRTQAVAGGVRGAARGAAAGQRDYDLLVVGGGSGGLACAKEAAQLGRKVAVVDYVEPSPQGTRWGLGGTCVNVGCIPKKLMHQAALLGGLIQDAPNYGWEVAQPVPHDWRKMAEAVQNHVKSLNWGHRVQLQDRKVKYFNIKASFVDEHTVCGVAKGGKEILLSADHIIIATGGRPRYPTHIEGALEYGITSDDIFWLKESPGKTLVVGASYVALECAGFLTGIGLDTTIMMRSIPLRGFDQQMSSMVIEHMASHGTRFLRGCAPSRVRRLPDGQLQVTWEDSTTGKEDTGTFDTVLWAIGRVPDTRSLNLEKAGVDTSPDTQKILVDSREATSVPHIYAIGDVVEGRPELTPIAIMAGRLLVQRLFGGSSDLMDYDNVPTTVFTPLEYGCVGLSEEEAVARHGQEHVEVYHAHYKPLEFTVAGRDASQCYVKMVCLREPPQLVLGLHFLGPNAGEVTQGFALGIKCGASYAQVMRTVGIHPTCSEEVVKLRISKRSGLDPTVTGCUG [TXNRD2] | -0.16 | 2.59 | -1.79 | 0.0295 | 53.6 °C | 53 °C |
| MAALLRRLLQRERPSAASGRPVGRREANLGTDAGVAVRVRFAPSPTGFLHLGGLRTALYNYIFAKKYQGSFILRLEDTDQTRVVPGAAENIEDMLEWAGIPPDESPRRGGPAGPYQQSQRLELYAQATEALLKTGAAYPCFCSPQRLELLKKEALRNHQTPRYDNRCRNMSQEQVAQKLAKDPKPAIRFRLEQVVPAFQDLVYGWNRHEVASVEGDPVIMKSDGFPTYHLACVVDDHHMGISHVLRGSEWLVSTAKHLLLYQALGWQPPHFAHLPLLLNRDGSKLSKRQGDVFLEHFAADGFLPDSLLDIITNCGSGFAENQMGRTLPELITQFNLTQVTCHSALLDLEKLPEFNRLHLQRLVSNESQRRQLVGKLQVLVEEAFGCQLQNRDVLNPVYVERILLLRQGHICRLQDLVSPVYSYLWTRPAVGRAQLDAISEKVDVIAKRVLGLLERSSMSLTQDMLNGELKKLSEGLEGTKYSNVMKLLRMALSGQQQGPPVAEMMLALGPKEVRERIQKVVSS [EARS2] | -0.0812 | -0.077 | 1.7 | 0.363 | 49.2 °C | 49.5 °C |
| MRLTRCQAALAAAITLNLLVLFYVSWLQHQPRNSRARGPRRASAAGPRVTVLVREFEAFDNAVPELVDSFLQQDPAQPVVVAADTLPYPPLALPRIPNVRLALLQPALDRPAAASRPETYVATEFVALVPDGARAEAPGLLERMVEALRAGSARLVAAPVATANPARCLALNVSLREWTARYGAAPAAPRCDALDGDAVVLLRARDLFNLSAPLARPVGTSLFLQTALRGWAVQLLDLTFAAARQPPLATAHARWKAEREGRARRAALLRALGIRLVSWEGGRLEWFGCNKETTRCFGTVVGDTPAYLYEERWTPPCCLRALRETARYVVGVLEAAGVRYWLEGGSLLGAARHGDIIPWDYDVDLGIYLEDVGNCEQLRGAEAGSVVDERGFVWEKAVEGDFFRVQYSESNHLHVDLWPFYPRNGVMTKDTWLDHRQDVEFPEHFLQPLVPLPFAGFVAQAPNNYRRFLELKFGPGVIENPQYPNPALLSLTGSG [FKRP] | 0.00852 | -1.33 | 0.366 | 0.127 | 54.5 °C | 55.1 °C |
